Source: patent US11130783B2, “CD40 targeted peptides and uses thereof” (Regents of the University of Minnesota, priority 2018, dated 2021)
Entries after “also recorded” stand apart in the source; their conditions may differ.

Columns and labels:
recombinant human CD40 = molecular target: T1, recombinant human CD40 (Homo sapiens, UniProt P25942); test: ELISA for specificity of peptide binding to CD40; conditions: for affinity to bind to CD40 compared to the control Peptide 1: summary of the study; for binding affinity to CD40 by ELISA: FLAG-tagged rhsCD40 1 μg/ml, optical density at 450 nm
T1 construct: probed with FLAG-tagged rhsCD40 (1 μg/ml; Alexis); purchased Alexis
T1 sequence (P25942 21-193 limits assumed): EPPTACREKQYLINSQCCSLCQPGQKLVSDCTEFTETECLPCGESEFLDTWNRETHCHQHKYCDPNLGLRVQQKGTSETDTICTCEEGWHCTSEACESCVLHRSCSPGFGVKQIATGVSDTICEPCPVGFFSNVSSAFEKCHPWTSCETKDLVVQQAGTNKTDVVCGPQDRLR
Experimental: Binding of the identified peptides to CD40 was analyzed by ELISA. Briefly, plates were coated with […] and then incubated with identified peptides and detected using Flag-tagged rhsCD40.
In order to confirm the specificity of the peptides to interfere with CD40:CD154 interaction, the specificity of peptides 1-7 as listed in table 1 to bind to human […] by ELISA was tested. Briefly, 96 well ELISA (Nunc Immunolon) plates were coated with the peptides in carbonate buffer. The wells are washed and probed with FLAG-tagged rhsCD40 (1 μg/ml; Alexis) and developed with HRP conjugated rabbit anti-FLAG antibody. The plates were washed and the enzymatic activity was determined using 3,3′,5,5′-tetramethyl-benzidine substrate for 15 minutes and the reaction was stopped by the addition of 2 M H2SO4, and optical density was measured at 450 nm, with the correction wavelength set at 620 nm.

CD4, CD8 and CD20 cells = test: One-way CFSE mixed lymphocyte reaction (MLR), T and B cell proliferation; assay type: cell-based, Rhesus macaques; conditions: peptides at 30 μM, 6 days, CFSE-low cells, PBMC from 5 RM
Experimental: The ability of the CD40 targeting peptides to block CD40-CD40L signaling and inhibit T and B cell proliferation was assessed in a one-way CFSE-MLR. Each of the FIGS. 3A-3E show results of CFSE-MLR performed on PBMC obtained from a different Rhesus monkey. […] The levels of T cell and B cell proliferation was 35-46% in all the 5 animals and for sake clarity was capped at 25% in the figure for better visualization.
In order to determine the functional effect of co-stimulation blockade with peptides targeting CD40, one-way mixed lymphocyte reactions (MLR) was performed. CFSE-labeled PBMC from 5 different RM were stimulated with irradiated PBMC for 6 days. Stimulation with PHA was used as positive control. […] The cells were incubated in the presence of peptides at 30 μM. Following stimulation, PBMC were stained with antibodies specific for CD4, CD8 and CD20 and proliferating cells were quantitated by determining the frequency of CFSE-low CD4, CD8 and CD20 cells. Stained cells were acquired on a 3-laser BD Canto II instrument (BD Bioscience). A minimum of 200,000 events were acquired with FACSDIVA 6.1.3. FACS analysis was performed with FlowJo Version 10 software.

B cells = test: Peptide blocking of B cell activation by recombinant hCD40L (MHC class II expression); assay type: cell-based, Rhesus macaques; conditions: peptides at 30 μM, pre-incubation then recombinant hCD40L
Experimental: The ability of the newly identified peptides to block B cell activation by CD40L was analyzed in a peptide blocking study. Briefly, B cells were pre-incubated with newly identified peptides for 30 minutes before stimulation with rhCD40L. Activation of the B cells was analyzed by measuring the expression levels of MHC class II molecules on the cell surface by flow cytometry.
The ability of CD40-binding peptides 1-7 as listed in Table 1 to block B cell activation was assessed by analyzing the expression of MHC class II molecules on the B cell when subsequently incubated in the presence of recombinant hCD40L. Briefly, B cells were purified from 3 RM PBMC by magnetic sorting. B cells were incubated with peptides at 30 μM for 15 minutes at 37° C., then activated for 30 minutes with recombinant hCD40L, and then analyzed for expression of MHC class II by staining the cells with specific antibody. Stained cells were acquired on a 3-laser BD Canto II instrument (BD Bioscience). A minimum of 200,000 events were acquired with FACSDIVA 6.1.3. FACS analysis was performed with FlowJo Version 10 software.

[1] = molecular target: T2, CD40 on mononuclear cells (Macaca mulatta, UniProt A0ACM8QRX8); test: Binding of fluorochrome tagged CD40 targeting peptides to PBMC by flow cytometry; parameters: species or system Rhesus macaques; conditions: 5 μM fluorochrome tagged peptide, 30 minutes at 4° C.
T2 construct: peripheral blood mononuclear cells (PBMC) purified from 2 Rhesus macaques (RM); endogenous in cells; host or cells: PBMC from Rhesus macaques
T2 sequence (A0ACM8QRX8 21-278): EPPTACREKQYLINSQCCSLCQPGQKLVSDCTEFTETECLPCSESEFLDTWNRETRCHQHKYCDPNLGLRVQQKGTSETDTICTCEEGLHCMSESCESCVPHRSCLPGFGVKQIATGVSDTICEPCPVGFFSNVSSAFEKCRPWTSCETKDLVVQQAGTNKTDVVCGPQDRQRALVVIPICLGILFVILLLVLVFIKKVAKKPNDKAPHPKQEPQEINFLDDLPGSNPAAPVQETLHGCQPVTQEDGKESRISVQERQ
Experimental: Binding of the CD40 targeting peptides was analyzed by incubating 5 μM of various fluorochrome tagged CD40 interacting peptides with PBMC from rhesus monkeys for 30 minutes at 4° C. and analyzed by flow cytometry.
In order to screen the ability of the cyclic peptides to bind to CD40, peripheral blood mononuclear cells (PBMC) purified from 2 Rhesus macaques (RM) were incubated with 5 μM of fluorochrome tagged CD40 interacting peptides, Peptide 1-7 listed in Table 1 for 30 minutes at 4° C. The cells were washed 3× in PBS and analyzed by flow cytometry. Stained cells were acquired on a 3-laser BD Canto II instrument (BD Bioscience). A minimum of 200,000 events were acquired with FACSDIVA 6.1.3. Mean fluorescence intensity of the peptide binding to the cells were determined using FlowJo 10.1. software (Tree Star; Ashland, OR, USA). […] 1-7 bind to the PBMC but at various intensities, confirming the ability of the synthetic peptides to bind to CD40 on mononuclear cells.

affinity to bind to CD40 compared to the control Peptide 1 (recombinant human CD40)	binding affinity to CD40 by ELISA (recombinant human CD40)	binding to PBMC / mononuclear cells (mean fluorescence intensity) [1]	Sequence	suppression of T and B cell (CD4, CD8, CD20) proliferation (CD4, CD8 and CD20 cells)	ability to block B cell activation (MHC class II expression) (B cells)	suppression of T and B cell (CD4, CD8, CD20) proliferation (CD4, CD8 and CD20 cells; listed as Peptide#2)	suppression of T and B cell (CD4, CD8, CD20) proliferation (CD4, CD8 and CD20 cells; listed as Peptide #3)
higher affinity			LVNWADKAFYTTSNN [Peptide 5]	complete abrogation of T and B cell proliferation	complete abrogation of T and B cell proliferation as well as activation of B cells		
	lowest binding affinity		VLNWADKAYFTMSQN [Peptide 4]				
higher affinity	specific binding to human CD40		VLQWAERGFYTTSNN [Peptide 2]	higher efficacy compared to the other peptides; also recorded: complete abrogation of T and B cell proliferation	complete abrogation of T and B cell proliferation as well as activation of B cells	inhibited T and B cell proliferation significantly better than the CD40 targeting peptide identified earlier	
higher affinity	specific binding to human CD40	high binding affinity	VVQWAEKGFFTMSNN [Peptide 3]	higher efficacy compared to the other peptides; also recorded: complete abrogation of T and B cell proliferation	complete abrogation of T and B cell proliferation as well as activation of B cells		inhibited T and B cell proliferation significantly better than the CD40 targeting peptide identified earlier
	specific binding to human CD40	least binding affinity	VVQWAEKGYYTMSQN [Peptide 7]				

Sequence	affinity to bind to CD40 compared to the control Peptide 1 (recombinant human CD40)	binding affinity to CD40 by ELISA (recombinant human CD40)	binding to PBMC / mononuclear cells (mean fluorescence intensity) [1]	suppression of T and B cell (CD4, CD8, CD20) proliferation (CD4, CD8 and CD20 cells)	ability to block B cell activation (MHC class II expression) (B cells)	suppression of T and B cell (CD4, CD8, CD20) proliferation (CD4, CD8 and CD20 cells; listed as Peptide#2)	suppression of T and B cell (CD4, CD8, CD20) proliferation (CD4, CD8 and CD20 cells; listed as Peptide #3)
VLQWAEKGYYTMSNN [Peptide 1, reference compound]		high binding affinity	high binding affinity				
